Positions count from the first letter of the chain named. In names and notes the source's numbering stands.

Data set [1] concerns the target T1, CgDHQD (Corynebacterium glutamicum, UniProt O52377, R19A).
T1 construct: gene aroQ; full length in pET30a (NdeI/XhoI), C-terminal 6xHis tag not reported cut, E. coli BL21(DE3); by primers starts MPGKILLLN, ends DILANLKK before tag
Briefly: X-ray crystal structure, […] A, crystal soaked with […] DHQ. In kind it is binding. The conditions noted are these: active site; inactive variant; glycerol occupies the R19 side-chain space; pH 5.5.

For data set [2], the target named is T2, CgDHQD (Corynebacterium glutamicum, UniProt O52377).
T2 construct: gene aroQ; full length in pET30a (NdeI/XhoI), C-terminal 6xHis tag not reported cut, E. coli BL21(DE3); by primers starts MPGKILLLN, ends DILANLKK before tag
T2 sequence (O52377 1-145): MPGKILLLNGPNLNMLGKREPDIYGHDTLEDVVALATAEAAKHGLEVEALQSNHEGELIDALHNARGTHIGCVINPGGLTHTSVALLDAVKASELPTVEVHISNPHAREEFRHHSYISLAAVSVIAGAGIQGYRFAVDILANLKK
Briefly: X-ray crystal structure, […] A, co-crystallised. Particulars: active site, two binding modes; 0.2 M ammonium citrate tribasic pH 7.0 in the crystallisation solution.

Data set [3] concerns the molecule itself. Briefly: SEC; analytical size-exclusion chromatography, Superdex 200 Increase 10/300 GL, 150 mM NaCl, 40 mM Tris-HCl pH 8.0, 1 ml of 1 mg/ml protein, 277 K; calibrated with aldolase, ovalbumin, ribonuclease A, aprotinin. Background: In gel filtration, larger molecules generally elute earlier.
Substrate in the data set “purified protein”: O=C1C[C@@](O)(C(=O)O)C[C@@H](O)[C@@H]1O
Briefly: purified protein. In kind it is biochemical, Corynebacterium glutamicum. The conditions noted are these: 50 mM Tris-HCl pH 8.0, room temperature, 20 nM enzyme, 50-2,000 uM substrate.

Data set [4] concerns the molecule itself. Briefly: crystal structure; CgDHQD R19A, 0.8 M lithium sulfate, 0.4 M ammonium sulfate, 0.1 M sodium citrate pH 5.5, soaked with 100 mM DHQ; space group C2221, six molecules per asymmetric unit, 2.0 Å.

T1 sequence (O52377 whole entry R19A): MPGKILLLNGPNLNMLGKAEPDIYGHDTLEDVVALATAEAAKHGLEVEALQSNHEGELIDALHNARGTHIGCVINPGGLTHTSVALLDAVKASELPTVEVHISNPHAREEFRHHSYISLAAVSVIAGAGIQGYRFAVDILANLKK

As to `O=C1C[C@@](O)(C(=O)O)C[C@@H](O)[C@@H]1O` [DHQ, 3-dehydroquinic acid], the “X-ray crystal structure, 2.00 A, crystal soaked with 100 mM DHQ” value at CgDHQD [1] is reported as “The DHQ-bound structure of CgDHQD explained the substrate-binding mode of the enzyme”. For `O=C(O)CC(O)(CC(=O)O)C(=O)O` [citrate], the “X-ray crystal structure, 1.80 A, co-crystallised” value at CgDHQD [2] was “CgDHQD structure in complex with the citrate ion exhibits two different binding modes”.

B1: 3-dehydroquinate dehydratase from Corynebacterium glutamicum, wild type (enzyme, Corynebacterium glutamicum ATCC 13032, UniProt O52377 1-145, looked up)
chain: T2 sequence (O52377 1-145)
notes: 3-dehydroquinate dehydratase (type II DHQD, EC 4.2.1.10) of Corynebacterium glutamicum ATCC 13032; The XhoI site of pET30a probably adds LE before the His tag (surmised); also called CgDHQD; CgDHQD^WT; source: E. coli BL21 (DE3)-T1R, purified (Ni-NTA, HiTrap Q ion exchange, size exclusion); copies: 12
A word on the stoichiometry N: it is the number of molecules, sites or subunits per partner or assembly. As a reminder, the Km is the substrate concentration at which the rate is half of its maximum. What is called kcat is the maximal rate divided by the concentration of active sites. As to B1, the “stoichiometry N” value in data set [3] worked out at 12. In the data set “purified protein”, the Km is 348.20 µM and the catalytic constant (kcat) came to 150.19 s⁻¹.

B2: CgDHQD (Corynebacterium glutamicum ATCC 13032; S103T) (protein)
chain: T2 sequence (O52377 1-145) with S103T
notes: full length in pET30a (NdeI/XhoI), C-terminal 6xHis tag not reported cut, E. coli BL21(DE3); by primers starts MPGKILLLN, ends DILANLKK before tag
With B2, in the data set “purified protein”, the Km was 745.3 µM and the kcat was 199.67 s⁻¹.

B3: 3-dehydroquinate dehydratase from Corynebacterium glutamicum, R19A variant (enzyme, Corynebacterium glutamicum ATCC 13032, UniProt O52377 1-145, looked up)
chain: T2 sequence (O52377 1-145) with R19A
notes: also called CgDHQD^R19A; source: E. coli BL21 (DE3)-T1R, purified in the same manner as wild type (Ni-NTA, ion exchange, size exclusion)
B3: the binding result in data set [4] is given as “binds”.

Values taken from PMC10772564, “Structural and Biochemical Analysis of 3-Dehydroquinate Dehydratase from Corynebacterium glutamicum” (Journal of Microbiology and Biotechnology, 2023).
